# Measurements published in IntAct's records for PubMed 21390248.
# B1: 14-3-3 protein gamma (Mus musculus), P61982 (parent)
# chain: MVDREQLVQKARLAEQAERYDDMAAAMKNVTELNEPLSNEERNLLSVAYKNVVGARRSSWRVISSIEQKTSADGNEKKIEMVRAYREKIEKELEAVCQDVLSLLDNYLIKNCSETQYESKVFYLKMKGDYYRYLAEVATGEKRATVVESSEKAYSEAHEISKEHMQPTHPIRLGLALNYSVFYYEIQNAPEQACHLAKTAFDDAIAELDTLNEDSYKDSTLIMQLLRDNLTLWTSDQQDDDGGEGNN
# Variants of: B1
# Conditions: with lrrk2_mouse Lrrk2, Q5S006
# lrrk2_mouse Lrrk2, Q5S006, sequence (Q5S006 whole entry): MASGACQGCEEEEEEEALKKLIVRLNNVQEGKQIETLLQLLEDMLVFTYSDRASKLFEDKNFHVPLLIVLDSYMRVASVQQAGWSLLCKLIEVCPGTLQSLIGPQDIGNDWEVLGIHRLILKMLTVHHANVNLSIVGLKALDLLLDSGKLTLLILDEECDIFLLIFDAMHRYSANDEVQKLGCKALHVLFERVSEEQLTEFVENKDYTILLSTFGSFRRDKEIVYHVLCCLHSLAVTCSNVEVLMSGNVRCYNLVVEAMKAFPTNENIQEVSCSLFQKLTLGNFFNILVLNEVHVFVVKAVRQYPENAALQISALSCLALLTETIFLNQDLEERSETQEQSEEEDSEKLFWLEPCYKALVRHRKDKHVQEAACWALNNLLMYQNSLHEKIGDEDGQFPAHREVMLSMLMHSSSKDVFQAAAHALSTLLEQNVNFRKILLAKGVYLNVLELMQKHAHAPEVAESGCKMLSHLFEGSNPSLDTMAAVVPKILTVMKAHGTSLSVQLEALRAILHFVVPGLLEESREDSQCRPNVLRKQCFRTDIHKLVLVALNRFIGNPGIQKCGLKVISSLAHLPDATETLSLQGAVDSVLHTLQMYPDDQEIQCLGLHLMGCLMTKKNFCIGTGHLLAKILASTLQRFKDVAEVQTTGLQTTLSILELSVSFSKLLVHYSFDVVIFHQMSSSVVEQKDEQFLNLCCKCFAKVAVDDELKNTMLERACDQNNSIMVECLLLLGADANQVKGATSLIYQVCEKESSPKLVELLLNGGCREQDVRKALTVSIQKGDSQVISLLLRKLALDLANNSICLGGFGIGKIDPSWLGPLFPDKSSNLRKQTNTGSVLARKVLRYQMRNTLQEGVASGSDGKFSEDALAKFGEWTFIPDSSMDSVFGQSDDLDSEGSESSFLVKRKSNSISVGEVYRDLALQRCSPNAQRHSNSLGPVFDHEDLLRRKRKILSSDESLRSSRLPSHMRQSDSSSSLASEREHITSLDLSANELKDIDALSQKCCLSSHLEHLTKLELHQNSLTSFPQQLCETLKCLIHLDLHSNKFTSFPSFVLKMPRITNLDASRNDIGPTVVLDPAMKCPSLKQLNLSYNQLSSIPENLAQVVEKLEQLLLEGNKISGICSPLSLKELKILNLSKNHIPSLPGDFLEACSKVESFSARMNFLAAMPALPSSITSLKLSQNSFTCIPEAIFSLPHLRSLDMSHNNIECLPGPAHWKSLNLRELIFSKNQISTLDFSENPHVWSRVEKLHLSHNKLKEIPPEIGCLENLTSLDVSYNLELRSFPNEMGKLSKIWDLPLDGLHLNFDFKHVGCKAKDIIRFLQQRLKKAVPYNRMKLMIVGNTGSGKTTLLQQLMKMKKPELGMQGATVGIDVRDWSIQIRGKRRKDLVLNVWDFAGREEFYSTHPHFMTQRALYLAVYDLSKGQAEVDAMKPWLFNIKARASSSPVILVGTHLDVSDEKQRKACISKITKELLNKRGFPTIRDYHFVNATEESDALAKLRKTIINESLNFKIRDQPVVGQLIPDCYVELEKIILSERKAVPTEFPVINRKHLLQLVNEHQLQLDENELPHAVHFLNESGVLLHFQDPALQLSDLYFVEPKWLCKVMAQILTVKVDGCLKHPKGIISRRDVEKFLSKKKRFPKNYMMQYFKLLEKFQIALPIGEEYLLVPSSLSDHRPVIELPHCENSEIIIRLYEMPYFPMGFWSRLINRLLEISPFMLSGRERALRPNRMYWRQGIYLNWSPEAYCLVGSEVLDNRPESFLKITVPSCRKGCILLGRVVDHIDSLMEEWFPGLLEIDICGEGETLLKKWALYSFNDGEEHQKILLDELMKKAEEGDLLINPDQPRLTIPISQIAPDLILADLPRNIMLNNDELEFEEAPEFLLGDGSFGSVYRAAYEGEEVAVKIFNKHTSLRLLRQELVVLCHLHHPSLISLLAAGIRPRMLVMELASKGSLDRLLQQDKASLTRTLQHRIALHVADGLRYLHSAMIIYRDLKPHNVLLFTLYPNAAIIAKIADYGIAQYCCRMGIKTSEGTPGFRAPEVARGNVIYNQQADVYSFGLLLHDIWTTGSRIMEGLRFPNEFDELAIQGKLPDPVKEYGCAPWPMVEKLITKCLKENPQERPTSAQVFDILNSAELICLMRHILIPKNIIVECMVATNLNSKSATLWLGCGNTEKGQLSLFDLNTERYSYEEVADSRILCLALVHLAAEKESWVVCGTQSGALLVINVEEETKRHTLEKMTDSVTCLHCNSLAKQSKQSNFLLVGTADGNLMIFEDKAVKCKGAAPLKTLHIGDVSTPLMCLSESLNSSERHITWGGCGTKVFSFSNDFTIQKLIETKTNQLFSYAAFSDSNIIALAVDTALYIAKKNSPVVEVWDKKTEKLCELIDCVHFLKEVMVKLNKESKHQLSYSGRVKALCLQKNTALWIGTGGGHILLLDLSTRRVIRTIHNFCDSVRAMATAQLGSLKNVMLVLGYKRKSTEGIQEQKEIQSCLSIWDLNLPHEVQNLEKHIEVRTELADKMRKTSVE
row,effect of a mutation on the interaction,Variant
1,disrupting interaction,V181D
2,disrupting interaction,K50E
